Where a chain is given by its changes, count along the chain named. Names may count otherwise.
B1: GIC-982C1 (IL-2/IL-15) (Fc fusion)
chain: GSAESKYGPPCPPCPAPEAAGGPSVFLFPPKPKDQLMISRTPEVTCVVVDVSQEDPEVQFNWYVDGVEVHNAKTKPREEQFNSTYRVVSVLTVLHQDWLNGKEYKCKVSNKGLPSSIEKTISKAKGQPREPQVYTLPPSQEEMTKNQVSLTCLVKGFYPSDIAVEWESNGQPENNYKTTPPVLDSDGSFFLYSRLTVDKSRWQEGNVFSCSVLHEALHNHYTQKSLSLSLGGGGGSGGGGSITCPPPMSVEHADIWVKSYSLYSRERYICNSGFKRKAGTSSLTECVLNKATNVAHWTTPSLKCIRGGGGSGGGGSGGGGSGGGGSAPTSSSTKKTQLQLEHLLLDLQMILNGSMHIDATLYTESDVHPSCKVTAMKCFLLELQVISLESKNFHLRPRDLISNINVIVLELKGSNGNVTESGCKECEELEEKNIVEFLNRWITFCQSIISTLT
B2: GIC-982C15 (IL-2/IL-15v8) (S76K) (Fc fusion)
chain: B1 chain with S402K
B3: GIC-982C4 (IL-2/IL-15v3) (S76D) (Fc fusion)
chain: B1 chain with S402D
notes: the entry already holds the change
B4: GIC-982C2 (IL-2/IL-15v1) (D73E) (Fc fusion)
chain: B1 chain with D399E
notes: as for B3
B5: GIC-982C3 (IL-2/IL-15v2) (L74F) (Fc fusion)
chain: B1 chain with L400F
notes: as for B3
B6: GIC-982C12 (IL-2/IL-15v11) (D73E, L74F, S76D, N77D, V80L) (Fc fusion)
chain: B1 chain with D399E, L400F, S402D, N403D, V406L
notes: the entry already holds the changes
B7: GIC-982C6 (IL-2/IL-15v5) (V80L) (Fc fusion)
chain: B1 chain with V406L
notes: as for B3
B8: GIC-982C13 (IL-2/IL-15v6) (S76E) (Fc fusion)
chain: B1 chain with S402E
B9: GIC-982C5 (IL-2/IL-15v4) (N77D) (Fc fusion)
chain: B1 chain with N403D
notes: as for B3
B10: GIC-982C14 (IL-2/IL-15v7) (S76N) (Fc fusion)
chain: B1 chain with S402N

Tests used:
[1] = target: T1, IL-2Rβ and common γ chain on HEK-Blue CD122/132 cells (InvivoGen hkb-il2bg) (UniProt P14784 27-551; P31785 23-369, limits assumed); experiment: cell-based or functional assay
T1 sequence (looked up) 1: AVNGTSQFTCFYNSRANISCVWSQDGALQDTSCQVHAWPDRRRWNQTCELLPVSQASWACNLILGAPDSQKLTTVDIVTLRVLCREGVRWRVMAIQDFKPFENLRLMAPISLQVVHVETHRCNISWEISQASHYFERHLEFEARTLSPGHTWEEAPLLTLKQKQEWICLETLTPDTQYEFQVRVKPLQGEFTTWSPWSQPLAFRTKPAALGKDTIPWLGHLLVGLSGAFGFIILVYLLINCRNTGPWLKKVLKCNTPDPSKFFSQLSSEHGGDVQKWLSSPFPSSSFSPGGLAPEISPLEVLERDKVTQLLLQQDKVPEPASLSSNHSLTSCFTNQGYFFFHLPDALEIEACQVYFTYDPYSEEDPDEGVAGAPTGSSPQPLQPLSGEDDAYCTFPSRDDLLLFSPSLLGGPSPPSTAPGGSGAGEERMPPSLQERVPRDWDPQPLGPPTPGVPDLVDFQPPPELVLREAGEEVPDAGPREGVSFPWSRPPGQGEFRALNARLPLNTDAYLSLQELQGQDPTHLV
T1 sequence (looked up) 2: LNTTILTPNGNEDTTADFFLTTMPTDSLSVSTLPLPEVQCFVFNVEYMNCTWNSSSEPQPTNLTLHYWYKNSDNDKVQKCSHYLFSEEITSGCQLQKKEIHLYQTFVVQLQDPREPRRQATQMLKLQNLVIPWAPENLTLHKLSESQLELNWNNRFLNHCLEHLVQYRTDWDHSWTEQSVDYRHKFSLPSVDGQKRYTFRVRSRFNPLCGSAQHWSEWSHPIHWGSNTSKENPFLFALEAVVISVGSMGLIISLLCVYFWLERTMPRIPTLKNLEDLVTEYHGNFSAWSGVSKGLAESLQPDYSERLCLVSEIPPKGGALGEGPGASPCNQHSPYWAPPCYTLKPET

[2] = target: T2, IL-2Rβ-his (Acro CD2-H5221) (UniProt P14784 27-239); experiment: Octet BLI; IL-2Rβ-his on Ni-NTA sensor, analyte 2,000 to 31.25 nM
T2 construct: also called CD122; not shown: his tag
T2 sequence (looked up): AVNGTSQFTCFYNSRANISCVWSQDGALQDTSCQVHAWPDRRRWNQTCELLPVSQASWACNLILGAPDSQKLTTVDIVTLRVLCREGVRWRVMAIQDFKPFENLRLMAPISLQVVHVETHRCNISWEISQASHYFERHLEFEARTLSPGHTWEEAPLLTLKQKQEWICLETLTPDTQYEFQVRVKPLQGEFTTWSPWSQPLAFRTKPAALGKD

Binder	EC50 (ng/ml), STAT5 activity, HEK-Blue CD122/132 reporter cells [1] [ng/mL]	Kd [2] [nM]	koff [2] [s⁻¹]	kon [2] [M⁻¹ s⁻¹]
B1	1730	387	0.000335	866
B2	134	178	0.000476	2670
B3	255	144	0.000338	2350
B4	1080	215	0.000148	686
B5	9740	302	0.000481	1590
B6		265	9.11e-05	344
B7	723	386	0.000435	1130
B8	1390	105	0.000204	1930
B9		1290	0.000313	242
B10	997	327	0.000223	686

From patent publication EP4772613A1 (GI Cell, Inc., dated 2026)
